In experiment [1] the target is T1, N-terminal FLAG-tagged cynomolgus monkey ROBO4, cynoROBO4-2 (pCI-FLAG-cynoROBO4-2) (cynomolgus monkey, UniProt Q8WZ75 28-1007 (human entry)).
T1 chain: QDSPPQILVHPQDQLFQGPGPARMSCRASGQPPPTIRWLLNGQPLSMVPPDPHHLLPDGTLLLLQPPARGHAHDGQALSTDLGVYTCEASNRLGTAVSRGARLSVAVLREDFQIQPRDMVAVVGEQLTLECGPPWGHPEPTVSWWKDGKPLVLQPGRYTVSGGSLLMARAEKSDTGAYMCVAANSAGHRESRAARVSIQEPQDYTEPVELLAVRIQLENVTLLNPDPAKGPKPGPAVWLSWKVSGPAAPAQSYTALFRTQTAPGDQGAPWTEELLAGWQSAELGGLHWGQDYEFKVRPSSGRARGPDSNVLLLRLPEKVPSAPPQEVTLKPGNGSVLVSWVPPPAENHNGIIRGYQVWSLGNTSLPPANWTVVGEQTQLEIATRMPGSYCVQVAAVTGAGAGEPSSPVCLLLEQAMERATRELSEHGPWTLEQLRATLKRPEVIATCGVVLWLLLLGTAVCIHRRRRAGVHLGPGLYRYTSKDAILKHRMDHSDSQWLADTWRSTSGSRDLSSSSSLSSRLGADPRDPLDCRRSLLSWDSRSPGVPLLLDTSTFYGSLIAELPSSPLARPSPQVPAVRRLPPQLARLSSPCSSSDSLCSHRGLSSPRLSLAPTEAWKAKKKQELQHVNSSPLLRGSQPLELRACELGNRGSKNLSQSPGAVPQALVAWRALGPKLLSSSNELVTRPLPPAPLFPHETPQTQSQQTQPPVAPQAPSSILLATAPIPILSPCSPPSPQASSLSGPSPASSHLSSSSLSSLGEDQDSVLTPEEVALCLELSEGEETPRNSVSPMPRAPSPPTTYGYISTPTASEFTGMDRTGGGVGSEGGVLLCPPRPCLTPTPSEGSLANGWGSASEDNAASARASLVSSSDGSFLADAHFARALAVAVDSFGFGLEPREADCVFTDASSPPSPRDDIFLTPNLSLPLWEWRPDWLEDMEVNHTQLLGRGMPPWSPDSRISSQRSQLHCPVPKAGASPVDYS
The experiment in a line: flow cytometry (FC500), HEK293 cells transfected with pCI-FLAG-cynoROBO4-2, antibody at 10 µg/mL, FITC goat anti-human IgG Fc; control histogram IgG (human IgG).

Experiment [2] has as its target T2, mouse ROBO4 (pCI-mROBO4-transfected HEK293 cells) (mouse, UniProt Q8C310 28-1012).
T2 sequence: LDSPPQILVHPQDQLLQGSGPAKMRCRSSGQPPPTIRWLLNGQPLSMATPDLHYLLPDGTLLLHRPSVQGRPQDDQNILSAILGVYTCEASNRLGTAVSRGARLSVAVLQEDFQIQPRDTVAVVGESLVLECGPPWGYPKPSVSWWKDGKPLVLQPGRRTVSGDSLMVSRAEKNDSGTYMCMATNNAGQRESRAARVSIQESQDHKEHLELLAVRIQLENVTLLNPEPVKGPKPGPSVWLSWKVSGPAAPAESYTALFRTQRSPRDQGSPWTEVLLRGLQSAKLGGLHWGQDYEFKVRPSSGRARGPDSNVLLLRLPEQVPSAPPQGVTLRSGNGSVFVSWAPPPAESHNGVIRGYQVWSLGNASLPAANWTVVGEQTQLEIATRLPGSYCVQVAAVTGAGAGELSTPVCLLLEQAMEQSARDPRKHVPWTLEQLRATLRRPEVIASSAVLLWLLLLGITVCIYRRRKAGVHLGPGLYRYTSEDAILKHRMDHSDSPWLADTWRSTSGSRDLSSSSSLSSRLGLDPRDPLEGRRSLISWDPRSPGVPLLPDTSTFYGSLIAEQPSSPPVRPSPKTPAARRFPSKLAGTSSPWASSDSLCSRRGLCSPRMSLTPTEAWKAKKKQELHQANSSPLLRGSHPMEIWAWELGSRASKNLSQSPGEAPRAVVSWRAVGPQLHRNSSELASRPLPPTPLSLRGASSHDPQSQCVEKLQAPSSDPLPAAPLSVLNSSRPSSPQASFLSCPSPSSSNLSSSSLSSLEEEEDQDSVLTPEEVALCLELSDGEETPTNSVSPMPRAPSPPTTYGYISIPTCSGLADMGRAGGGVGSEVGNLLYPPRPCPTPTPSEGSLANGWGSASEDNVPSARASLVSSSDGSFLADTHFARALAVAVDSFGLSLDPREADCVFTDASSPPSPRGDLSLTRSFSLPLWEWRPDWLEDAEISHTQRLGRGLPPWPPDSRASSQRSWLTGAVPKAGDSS
The experiment in a line: flow cytometry, HEK293 cells transfected with pCI-mROBO4, anti-mouse IgG FITC; control histogram IgG (Mouse IgG2a). The procedure:
HEK293 cells were inoculated at a concentration of 1.5×10⁶ cells/dish to a 60-mm dish (manufactured by Corning Inc.) and cultured overnight in a DMEM medium containing 10% FBS at 37° C. under 5% CO₂ conditions. On the next day, the HEK293 cells were transfected with pCI-hROBO4, pCI-mROBO4, pCI-raROBO4, pCI-FLAG-cynoROBO4-1, pCI-FLAG-cynoROBO4-2, pCI-hROBO1, pCI-hROBO2, or pCI-hROBO3 using FuGENE6 Transfection Reagent and further cultured overnight at 37° C. under 5% CO₂ conditions. On the next day, the expression vector-transfected cells were treated with TrypLE Express (manufactured by Life Technologies Corp.), washed with PBS containing 5% FBS, and then suspended in PBS containing 5% FBS. The obtained cell suspension was used in flow cytometry analysis.
Each cell suspension prepared in 4)-3-1 was centrifuged, and the supernatant was removed. Then, MAb1 or a negative control Mouse IgG2a was added at a concentration of 10 μg/mL to 2×10⁵ expression vector-transfected cells, and the resulting suspension was left standing at 4° C. for 1 hour. […] Data was analyzed using Flowjo. The histogram of FITC fluorescence intensity was prepared. The antibody was determined to bind in a cross-species manner when the histogram of MAb1 was shifted to a stronger fluorescence intensity region compared with the histogram of the negative control Mouse IgG2a.

B1: humanized MAb1 antibody H-2140 (antibody, human IgG2, kappa, V domains shown)
VH: EVQLVESGGGLVQPGGSLRLSCAASGFTFSTYAMSWVRQAPGKRLEWVATISQGGTYTYYPDSVKGRFTISRDNAKNTLYLQMNSLRAEDTAVYYCARLIYYDYLDYWGQGTLVTVSS
VL: DIVMTQSPLSLPVTLGEPASISCRSSQSLENSNGNTYLNWYLQKPGQSPQLLIYRVSNRFSGVPDRFSGSGSGTDFTLKISRVEAEDVGVYYCLQVTHVPWTFGPGTKVDIKR
notes: Human IgG2 / kappa constant regions; also called hMAb1-H4-type heavy chain + hMAb1-L1-type light chain
For B1, the binding result in experiment [1] is on record as “binds”.

B2: anti-ROBO4 mouse monoclonal antibody MAb1 (antibody, mouse IgG1, V domains shown)
VH: EVQLVESGGGLVKPGGSLKLSCAASGFTFSTYAMSWVRQTPEKRLEWVATISNGGTYTYYPDSVKGRFTISRDNAENTLYLQMSSLRSEDTAMYFCARLIYYDYLDYWGHGTTLTVSS
VL: DAVMTQTPLSLPVSLGDQASISCRSSQSLENSNGNTYLNWYFQKPGQSPQLLIYRVSNRFSGVLDRFSGSGSGTDFTLKISRVEAEDFGVYFCLQVTHVPWTFGGGTKLEIKR
notes: Mouse IgG1 (gamma1), kappa light chain, purified from hybridoma supernatant; also called parent antibody MAb1
B2: the binding result in experiment [2] is recorded as “no binding (tested: 10 µg/mL)”.
